The target in series [1] is T1, alpha-amylase (Homo sapiens, UniProt P0DUB6 P0DUB6:16-511).
T1 sequence: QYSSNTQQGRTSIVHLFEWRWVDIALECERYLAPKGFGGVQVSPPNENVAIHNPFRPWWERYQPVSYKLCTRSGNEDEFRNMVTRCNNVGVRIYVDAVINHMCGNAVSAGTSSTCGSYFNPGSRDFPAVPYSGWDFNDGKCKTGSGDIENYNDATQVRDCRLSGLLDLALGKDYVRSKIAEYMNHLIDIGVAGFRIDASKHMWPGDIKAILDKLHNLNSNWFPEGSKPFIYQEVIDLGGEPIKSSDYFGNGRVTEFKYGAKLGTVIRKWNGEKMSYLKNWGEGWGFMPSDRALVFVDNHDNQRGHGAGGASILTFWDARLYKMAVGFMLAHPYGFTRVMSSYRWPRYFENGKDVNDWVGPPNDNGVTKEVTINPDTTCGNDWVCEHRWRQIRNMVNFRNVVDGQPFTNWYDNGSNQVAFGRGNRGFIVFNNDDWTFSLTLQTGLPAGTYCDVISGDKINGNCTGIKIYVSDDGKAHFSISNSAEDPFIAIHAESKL
Briefly: SPR; SPR buffer with 1 mM MgCl2, pH 7.4; Chi2 31.8; text says all Kd 17 nM or less. The note with it: tags: none stated; commercial human alpha-amylase, Lee Biosolutions; label: 3' poly(dA)20 captured on biotin-poly(dT)20. On the procedure: Then, the poly(dA)-added aptamer at 200 nmol/L was injected to the flow cell of the chip using an SPR buffer at a flow rate of 25 μL/min for 80 seconds, and the binding was allowed to proceed until the signal intensity reached about 800 RU. […] Subsequently, the specimen was injected using the SPR buffer at a flow rate of 50 μL/min for 120 seconds, followed by washing performed by flowing the SPR buffer under the same conditions for 300 seconds. The concentration of the human α-amylase in the specimen was set to 400 nmol/L. Signal intensity measurement was performed concurrently with the injection of the specimen and the washing with the SPR buffer. With 0 seconds being the start of the injection, the mean value of signal intensities from 115 seconds to 125 seconds was determined. […] Then, the value (B/A) obtained by dividing the protein binding measured value (B) by the aptamer immobilization measured value (A) was determined as a relative value (Relative Unit).
(§1) The binding ability of the aptamers was analyzed by SPR in the same manner as in Example 1, except that the concentration of the α-amylase in the specimen was set to a plurality of values. The concentration was set to 20 nmol/L, 10 nmol/L, 5 nmol/L, 2.5 nmol/L, and 1.25 nmol/L. Then, from the results obtained by the SPR analysis, the kinetic parameter and the chi-squared value were calculated.
On the technique in general: SPR reads the build-up and loss of mass on a sensor chip optically.

The target of series [2] is T1, alpha-amylase. The experiment in a line: SPR; SPR buffer with 1 mM MgCl2, pH 7.4; Chi2 3.26. The note with it: tags: none stated; commercial human alpha-amylase, Lee Biosolutions; label: 3' poly(dA)20 captured on biotin-poly(dT)20. As for the experimental part:
(§2) Biotinylated poly(dT) at 5 μmol/L was injected to a flow cell of the sensor chip using ultrapure water (DDW), and the binding was allowed to proceed until the signal intensity (RU: Resonance Unit) reached about 900 RU. The biotinylated poly(dT) was prepared by biotinylating the 5′ end of 20-mer deoxythymidine. Then, the poly(dA)-added aptamer at 200 nmol/L was injected to the flow cell of the chip using an SPR buffer at a flow rate of 25 μL/min for 80 seconds, and the binding was allowed to proceed until the signal intensity reached about 800 RU. […] With 0 seconds being the start of the injection, the mean value of signal intensities from 115 seconds to 125 seconds was determined. […] Then, the value (B/A) obtained by dividing the protein binding measured value (B) by the aptamer immobilization measured value (A) was determined as a relative value (Relative Unit).
as §1

The target in series [3] is T1, alpha-amylase. The experiment in a line: SPR; SPR buffer with 1 mM MgCl2, pH 7.4; Chi2 4.17. The settings on record: tags: none stated; commercial human alpha-amylase, Lee Biosolutions; label: 3' poly(dA)20 captured on biotin-poly(dT)20. On the procedure: as §2, §1
Another series deals with T2, chromogranin A (CgA) (Homo sapiens, UniProt P10645 P10645:19-457).
T2 sequence: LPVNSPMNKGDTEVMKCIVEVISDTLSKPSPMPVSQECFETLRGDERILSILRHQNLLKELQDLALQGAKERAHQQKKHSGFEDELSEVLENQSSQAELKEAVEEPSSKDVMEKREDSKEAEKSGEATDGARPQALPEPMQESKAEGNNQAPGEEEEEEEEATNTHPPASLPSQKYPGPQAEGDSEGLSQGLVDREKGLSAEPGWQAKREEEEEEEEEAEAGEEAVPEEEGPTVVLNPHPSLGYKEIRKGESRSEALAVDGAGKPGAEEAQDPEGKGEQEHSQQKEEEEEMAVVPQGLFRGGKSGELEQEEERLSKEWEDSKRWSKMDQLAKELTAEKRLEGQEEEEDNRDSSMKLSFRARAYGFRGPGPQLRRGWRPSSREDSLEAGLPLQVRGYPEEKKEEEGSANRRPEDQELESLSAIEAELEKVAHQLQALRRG
The experiment in a line: capillary electrophoresis specificity control. The settings on record: tags: N-terminal His-tag; full length, Creative BioMart CHGA-26904TH; label: 5' TYE665. As for the experimental part:
(§3) Reaction solutions containing the labeled aptamer (SEQ ID NO: 1) were prepared. Each of the reaction solutions was subjected to CAE under the following conditions. The reaction solution was caused to migrate while separating the components therefrom, and the fluorescence at a maximum absorption wavelength (665 nm) of the fluorescent substance was measured. As the reaction solutions, the following four types of reaction solutions were used: a reaction solution 1 containing the labeled aptamer only; a reaction solution 2 containing the labeled aptamer and the α-amylase; a reaction solution 3 containing the labeled aptamer and the saliva; and a reaction solution 4 containing the labeled aptamer as the negative control and the saliva. In each of the reaction solutions, the concentration of the labeled aptamer was 200 nmol/L. In the reaction solution 2, the concentration of the α-amylase was 2 μmol/L. In the reaction solutions 3 and 4, the concentration of the saliva was 10%. The reminder of each of the reaction solutions was a buffer solution. The composition of the buffer solution was as follows: 40 mmol/L HEPES (pH 7.5), 125 mmol/L NaCl, 5 mmol/L KCl, and 1 mmol/L MgCl₂.
Preparation of the reaction solution 2 and the binding ability analysis by CAE were carried out in the same manner as in the above item (3), except that the labeled aptamers (SEQ ID NOs: 1, 2, 3, and 19) were used. Further, in order to examine the specificity of the labeled aptamers to the α-amylase, the binding ability analysis by CAE was performed in the same manner as in the case where the above-described reaction solution 2 was used, except that, instead of the α-amylase, human chromogranin A (CgA, recombinant full length protein, Creative BioMart, #CHGA-26904TH) or human IgA (secretory, Biomedicals, LLC-Cappel Products, #55905), each having a His-tag fused at the N terminus were used.

The target in series [4] is T1, alpha-amylase. The experiment in a line: capillary electrophoresis; 200 nM aptamer, 2 uM amylase, 40 mM HEPES pH 7.5, 1 mM MgCl2. The note with it: tags: none stated; commercial human alpha-amylase, Lee Biosolutions; label: 5' TYE665. As for the experimental part: as §3
In series [5] the target is T1, alpha-amylase. Briefly: SPR; SPR buffer with 1 mM MgCl2, pH 7.4; Chi2 3.85. The settings on record: tags: none stated; commercial human alpha-amylase, Lee Biosolutions; label: 3' poly(dA)20 captured on biotin-poly(dT)20. As for the experimental part: as §2, §1
In series [6] the target is T1, alpha-amylase. The experiment in a line: SPR; SPR buffer with 1 mM MgCl2, pH 7.4; Chi2 24.55. The note with it: tags: none stated; commercial human alpha-amylase, Lee Biosolutions; label: 3' poly(dA)20 captured on biotin-poly(dT)20. On the procedure: as §2, §1
Series [7] concerns the target T1, alpha-amylase. The experiment in a line: SPR; SPR buffer with 1 mM MgCl2, pH 7.4; Chi2 30.79. The note with it: tags: none stated; commercial human alpha-amylase, Lee Biosolutions; label: 3' poly(dA)20 captured on biotin-poly(dT)20. As for the experimental part: as §2, §1
Series [8] addresses T1, alpha-amylase. Briefly: SPR; SPR buffer with 1 mM MgCl2, pH 7.4; Chi2 10.58. The settings on record: tags: none stated; commercial human alpha-amylase, Lee Biosolutions; label: 3' poly(dA)20 captured on biotin-poly(dT)20. On the procedure: as §2, §1
Series [9] has as its target T1, alpha-amylase. The experiment in a line: SPR; SPR buffer with 1 mM MgCl2, pH 7.4; Chi2 23.87. The settings on record: tags: none stated; commercial human alpha-amylase, Lee Biosolutions; label: 3' poly(dA)20 captured on biotin-poly(dT)20. On the procedure:
as §2, §1

Series [10] has as its target T1, alpha-amylase. Briefly: SPR; SPR buffer with 1 mM MgCl2, pH 7.4; Chi2 4.3. The settings on record: tags: none stated; commercial human alpha-amylase, Lee Biosolutions; label: 3' poly(dA)20 captured on biotin-poly(dT)20. On the procedure: as §2, §1
Series [11] concerns the target T1, alpha-amylase. The experiment in a line: SPR; SPR buffer with 1 mM MgCl2, pH 7.4; Chi2 5.05. The note with it: tags: none stated; commercial human alpha-amylase, Lee Biosolutions; label: 3' poly(dA)20 captured on biotin-poly(dT)20. As for the experimental part:
as §2, §1

B1: AML1243KR8m3 (ssDNA)
DNA: GGATACCTTAACGCCGCCTATTGCGAGGTGTGGCTAGTCGTTATAGGTCCACCGAGTTGCACCCGTCTCGAAATCAAAAAAAAAAAAAAAAAAAA
modifications: KS9 modified T (formula 1) at underlined T, i.e. T 3' of the 5' primer region
What is called Kd is a measure of binding affinity in units of concentration. Read a high Kd as a looser complex. As for B1, binding with alpha-amylase [1] was characterised by a dissociation constant (Kd) of 19.9 nM. This lies in the double-digit nanomolar range.

B2: AML1243KR8m1s58_FW_s20 (ssDNA)
DNA: TACCTTAACGCCGCCTATTGTGAACGACGTGAATAGTGTTTGTGGGTCCGGAGTTAAAAAAAAAAAAAAAAAAAA
modifications: KS9 modified T (formula 1) at underlined T, i.e. T 3' of the 5' primer region
The molecule B2 showed a dissociation constant (Kd) with alpha-amylase [2] of 0.707 nM.

B3: AML1243KR8m1s65_FW_s20 (ssDNA)
DNA: TACCTTAACGCCGCCTATTGTGAACGACGTGAATAGTGTTTGTGGGTCCGGAGTTGCACCCGAAAAAAAAAAAAAAAAAAAA
modifications: KS9 modified T (formula 1) at underlined T, i.e. T 3' of the 5' primer region
Take B3: binding with alpha-amylase [3] was characterised by a dissociation constant (Kd) of 0.68 nM.

B4: TYE665-AML1243KR8m1 (ssDNA)
DNA: GGATACCTTAACGCCGCCTATTGTGAACGACGTGAATAGTGTTTGTGGGTCCGGAGTTGCACCCGTCTCGAAATC
modifications: KS9 modified T (formula 1) at underlined T, i.e. T 3' of the 5' primer region
Turning to B4, the binding result with chromogranin A (CgA) is “no binding”; with alpha-amylase [4], “binds”.

B5: Amy_258KK10R8m1 (ssDNA)
DNA: GGTTACGCCCAGGACACATTTCAAAAGATGATGGCATACGTAAAGGGTCGAGGTAAGCTCGGTCTCCTCGGATAATCAAAAAAAAAAAAAAAAAAAA
modifications: KK10 modified T (formula 2) at double-underlined T, i.e. T 3' of the 5' primer region
For B5, the Kd with alpha-amylase [5] was 2.72 nM.

B6: AML1243KR8m2s49Fw_s15 (ssDNA)
DNA: TAACGCCGCCTATTGCTATGAGTAGTGTTTGTAGGTCTGGCAAAAAAAAAAAAAAAAAAAA
modifications: KS9 modified T (formula 1) at underlined T, i.e. T 3' of the 5' primer region
On to B6, for which the affinity with alpha-amylase [6], expressed as Kd, was 2.66 nM.

B7: AML1243KR8m3s63Fw_s15 (ssDNA)
DNA: TAACGCCGCCTATTGCGAGGTGTGGCTAGTCGTTATAGGTCCACCGAGTTGCACCAAAAAAAAAAAAAAAAAAAA
modifications: KS9 modified T (formula 1) at underlined T, i.e. T 3' of the 5' primer region
Regarding B7, the equilibrium dissociation constant (Kd) with alpha-amylase [7] was found to be 18.7 nM.

B8: AML1243KR8m1_KS9-3_mini (ssDNA)
DNA: GTGAACGACGTGAATAGTGTTTGTGGGTCCGGAGTTAAAAAAAAAAAAAAAAAAAA
modifications: KS9 modified T (formula 1) at all T
For B8, in the series with alpha-amylase [8], the affinity, expressed as Kd, was 0.607 nM. That is a sub-nanomolar value.

B9: AML1243KR8m2 (ssDNA)
DNA: GGATACCTTAACGCCGCCTATTGCTATGAGTAGTGTTTGTAGGTCTGGCATGCGAGTTGCACCCGTCTCGAAATCAAAAAAAAAAAAAAAAAAAA
modifications: KS9 modified T (formula 1) at underlined T, i.e. T 3' of the 5' primer region
The molecule B9 registered a Kd with alpha-amylase [9] of 2.6 nM.

B10: AML1243KR8m1 (ssDNA)
DNA: GGATACCTTAACGCCGCCTATTGTGAACGACGTGAATAGTGTTTGTGGGTCCGGAGTTGCACCCGTCTCGAAATCAAAAAAAAAAAAAAAAAAAA
modifications: KS9 modified T (formula 1) at underlined T, i.e. T 3' of the 5' primer region
B10 came in with an equilibrium dissociation constant (Kd) with alpha-amylase [10] of 0.805 nM. This lies in the sub-nanomolar range.

B11: Amy_258KK10R8m2 (ssDNA)
DNA: GGTTACGCCCAGGACACATTTCATTGATGGCATACTAAGGGTCGAGGAATTCGTAAGCTCGGTCTCCTCGGATAATCAAAAAAAAAAAAAAAAAAAA
modifications: KK10 modified T (formula 2) at double-underlined T, i.e. T 3' of the 5' primer region
In the case of B11, in the series with alpha-amylase [11], binding was characterised by a dissociation constant (Kd) of 2.3 nM.

Values taken from patent US20180327746, “Alpha-AMYLASE-BINDING NUCLEIC ACID MOLECULE AND USE THEREOF” (NEC Solution Innovators, Ltd., published 2018).
